The record followed here is doi:10.1101/2023.04.03.535455 (bioRxiv, 2023).

The target of experiment [1] is T1, His-PI31 wild-type (human) (human), Q92530.
T1 chain: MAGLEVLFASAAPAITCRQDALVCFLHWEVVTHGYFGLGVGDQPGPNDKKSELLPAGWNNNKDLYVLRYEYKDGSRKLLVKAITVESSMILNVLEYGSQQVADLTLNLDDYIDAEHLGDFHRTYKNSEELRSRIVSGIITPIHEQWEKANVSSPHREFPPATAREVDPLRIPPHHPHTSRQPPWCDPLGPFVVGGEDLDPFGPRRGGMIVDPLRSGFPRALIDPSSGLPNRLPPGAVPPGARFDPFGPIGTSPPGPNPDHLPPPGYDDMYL
Kind of experiment: mass photometry. To be noted: remark: other sources report otherwise.

Experiment [2] concerns the target T2, recombinant wild-type human PI31 (Proteasome Inhibitor of 31,000 daltons) (human, UniProt Q92530 1-271).
T2 sequence: T1 chain
Put plainly: cryo-EM structure.

B1: His-PI31 wild-type (human), Q92530 1-271 (natural protein)
chain: T1 chain
In experiment [1], B1 registered a stoichiometry N of 2.

B2: β5 subunit of the bovine 20S proteasome (natural protein)
chain: TTTLAFKFRHGVIVAADSRATAGAYIASQTVKKVIEINPYLLGTMAGGAADCSFWERLLARQCRIYELRNKERISVAAASKLLANMVYQYKGMGLSMGTMICGWDKRGPGLYYVDSEGNRISGATFSVGSGSVYAYGVMDRGYSYDLEVEEAYDLARRAIYQATYRDAYSGGSVSLYHVREDGWIRVSSDNVADLHDKYSGSTH
Take B2: the binding result in experiment [2] is recorded as “binds”.

B3: β2 subunit of the bovine 20S proteasome (natural protein)
chain: TTIAGVVYKDGIVLGADTRATEGMVVADKNCSKIHFISPNIYCCGAGTAADTDMTTQLISSNLELHSLSTGRLPRVVTANRMLKQMLFRYQGYIGAALVLGGVDVTGPHLYSIYPHGSTDKLPYVTMGSGSLAAMAVFEDKFRPDMEEEEAKKLVSEAIAAGIFNDLGSGSNIDLCVISKSKLDFLRPYSVPNKKGTRFGRYRCEKGTNAVLTEKVTTLEIEVLEETVQTMDTS
With B3, the binding result in experiment [2] is given as “binds”.
